Earlier results, collected in PMC2669593.

Target: CaVβ1b (UniProt Q02641)
Sequence of UniProt Q02641 (Q02641 whole entry): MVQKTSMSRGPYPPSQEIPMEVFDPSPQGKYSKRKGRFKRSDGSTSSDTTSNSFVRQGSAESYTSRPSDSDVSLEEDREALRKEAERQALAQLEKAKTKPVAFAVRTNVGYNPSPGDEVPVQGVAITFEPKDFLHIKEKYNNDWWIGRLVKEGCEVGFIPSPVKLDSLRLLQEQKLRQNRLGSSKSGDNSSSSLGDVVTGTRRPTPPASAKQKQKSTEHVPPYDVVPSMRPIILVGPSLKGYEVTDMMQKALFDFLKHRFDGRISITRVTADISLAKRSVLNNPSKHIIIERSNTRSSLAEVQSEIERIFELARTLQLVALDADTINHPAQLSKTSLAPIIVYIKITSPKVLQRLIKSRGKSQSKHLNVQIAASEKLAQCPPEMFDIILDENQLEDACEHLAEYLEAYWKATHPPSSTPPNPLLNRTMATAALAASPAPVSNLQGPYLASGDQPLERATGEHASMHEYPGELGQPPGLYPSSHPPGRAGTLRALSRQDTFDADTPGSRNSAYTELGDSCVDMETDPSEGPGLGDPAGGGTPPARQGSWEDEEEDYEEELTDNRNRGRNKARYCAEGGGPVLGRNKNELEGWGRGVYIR

Q: With “CaV2.2 I-II linker (from UniProt Q00975)” as the substance, how does the Kd read?
A: 10 nM
